# Test results published in patent US20090280109A1, “ILT3 and ILT4-related compositions and methods” (The Trustees of Columbia University in the City of New York, priority 2001, published 2009).
# Entries after “also recorded” stand apart in the source; their conditions may differ.
# Test system: ILT3 and ILT4 on monocytes and DCs
# Experiment: Flow cytometry of ILT3, ILT4 and costimulatory molecules on APCs
# Type: cell-based, human
# Conditions: for ILT3 and ILT4 expression on APC (monocytes and dendritic cells): treatment of APC
# Procedure: To study the expression of ILT3 or ILT4 and costimulatory molecules on normal APCs from peripheral blood or spleen cell suspensions, APCs were incubated with TS cells for 18 h with or without CD40L-transfected D1.1 cells (see Results). The cells were then collected, washed and saturating amounts of mAbs to ILT3 or ILT4 were added (21, 22). After 30 min on ice, cells were washed twice, stained with PE-goat-anti-mouse or PE-goat-anti-rat (Caltech, Burlingame, Calif.), then washed twice again, incubated with mouse or rat IgG (as a blocking antibody, Vector Labs, Burlingame, Calif.), washed twice, then stained with mAbs to FITC-CD14 or cychrome-CD11c, FITC-HLA-DR and PerCP-CD3 (Pharmingen, San Diego, Calif.). In other samples, mAbs to PE-CD80 and PE-CD86 were added along with markers for monocytes and DCs. CD3^+ T cells were gated-out and CD14^+ monocytes or CD14^− CD11c^+HLA-DR^+ immature DCs were analyzed with CellQuest software on a G4 Apple Macintosh Computer. Annexin V and PI staining of target APCs was done as described (12). Five parameter analyses (forward scatter, side scatter and three fluorescence channels) were used for list mode data analysis. The FL3 channel was used as a fluorescence trigger and FL1 and FL2 as analysis parameters.
Molecule,ILT3 and ILT4 expression on APC (monocytes and dendritic cells),CD86 expression on human monocytes and DCs (within 20 h of incubation),expression of ILT3 and ILT4 on the membranes of human monocytes and DCs (within 20 h of incubation)
TNF-alpha,increase the expression,–,–
"IL-10: Interleukin 10, immunoregulatory cytokine (protein, UniProt P22301 19-178, looked up) Interleukin-10: SPGQGTQSENSCTHFPGNLPNMLRDLRDAFSRVKTFFQMKDQLDNLLLKESLLEDFKGYLGCQALSEMIQFYLEEVMPQAENQDPDIKAHVNSLGENLKTLRLRLRRCHRFLPCENKSKAVEQVKNAFNKLQEKGIYKAMSEFDIFINYIEAYMTMKIRN",induces upregulation; also recorded: increase the expression,down-regulated,up-regulated
